Measured values: PMC10653861, “Three small partner proteins facilitate the type VII-dependent secretion of an antibacterial nuclease” (mBio, 2023)

Target: the molecule itself
Assay: cross-linking; purified complexes from the major SEC peaks, 0.5 mg/mL in 50 mM HEPES pH 7.5, 150 mM NaCl, 0.1% glutaraldehyde for 30 min at room temperature, quenched with tris; SEC and SDS-PAGE with Coomassie staining

B1: EsaDEG trimer (complex)
chain 1: MTKDIEYLTADYDNEKSSIQSVIDAIEGQDFLDVDTTMDDAVSDVSSLDEDGAISLTSSVVGPQGSKLMGYYQNELYDYASQLDSKMKEIIDTPFIEDIDKAFKGITNVKLENILIKNGGGHGRDTYGASGKIAKGDAKKSDSDVYSIDEILKSDQEFVKVIDQHYKEMKKEDKKLSKSDFEKMMTQGASCDYMTVAEAEELEEQKKKEEAIEIAALAGMVVLSCINPVAGAVAIGAYSAYSAANAATGKNIVTGRKLSKEERIMEGLSLIPLPGMGFLKGAGKSLMKLGFKGGEKFAVKTGLQKTMQQAVSRISPKMGMMKNSVLNQSRNFAQNTHVGQMLSNMRGQATHTVQQSRNWIGQQAQNVKRIVNNGLDKEIAHPFKQQLAPAGMGGIKFAETTTLRNMGQNIKRAVTPQNHVTHGPKDSMVRSEGKHSISSHEMNSSKYVESPNYTKVEFGEHYARLRPKKLKANIEYTTPTGHIYRTDHKGRIKEVYVDNLSLKDGDRNSHAQRTVGGEDRLPDDDGGALIARMFGGSKDIDNLVAQSKFINRPFKEKGHWYNLEKEWQEFLNSGKEVKNIKMEVKYSGNSQRPTIFKVEYEINGERNIRRILNK
chain 2: MKDVKRIDYFSYEELTILGGSKLPLVNFELFDPSNFEEAKAALIEKELVTENDKLTDAGFKVATLVREYISAIVNIRINDMYFAPFSYEKDEYILLSRFKNNGFQIRIINKDIAWWSIVQSYPLLMRQEKSNDWDFKQIDDETLENLNNESIDTIGRVLEIEIYNHQGDPQQSLYNIYEQNDLLFIRYPLKDKVLNVHIGVINTFIRELFGFDTDENHINKAEE
chain 3: MTFEEKLSKIYNEIANEISSMIPVEWEKVYTMAYIDDGGGEVFFNYTKPGSDDLNYYTNIPKEYNISVQVFDDLWMDLYDLFEELRDLFKEEDLEPWTSCEFDFTREGELKVSFDYIDWINSEFGQIGRQNYYKYRKFGILPETEYEINKVKEIEQYIKELEE
notes: EsaD nuclease toxin of Staphylococcus aureus with H528A, as m1; EsaE chaperone of Staphylococcus aureus, as m5; EsaG immunity protein of Staphylococcus aureus, as m6; also called EsaDEG complex; not shown: His6, C-terminal, kept; copies: + +
B1: binds.
